Biological target: GST (UniProt P08515 1-218 = GST)
Assay: pull-down on glutathione sepharose, Western blot with anti-T7

Chain of GST (P08515 whole entry): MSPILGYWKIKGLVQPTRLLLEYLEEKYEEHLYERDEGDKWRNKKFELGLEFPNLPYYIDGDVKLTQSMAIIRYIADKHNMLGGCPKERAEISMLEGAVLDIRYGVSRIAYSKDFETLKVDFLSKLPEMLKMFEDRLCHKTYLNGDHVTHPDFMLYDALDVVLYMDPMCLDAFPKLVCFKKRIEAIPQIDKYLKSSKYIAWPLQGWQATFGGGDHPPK

B1: T7-ATR41-227 (fusion protein having a hexahistidine tag, a T7 tag, and amino acids 41 to 227 of ATR) (receptor)
chain: GGFDLYFILDKSGSVLHHWNEIYYFVEQLAHKFISPQLRMSFIVFSTRGTTLMKLTEDREQIRQGLEELQKVLPGGDTYMHEGFERASEQIYYENRQGYRTASVIIALTDGELHEDLFFYSEREANRSRDLGAIVYCVGVKDFNETQLARIADSKDHVFPVNDGFQALQGIIHSILKKSCIEILAAE
notes: also called the I domain; extracellular fragment of ATR
binding result: no binding

Reference: patent publication US20060110801A1 (WISCONSIN ALUMNI RESEARCH FOUNDATION, published 2006)
